According to paper PMC12946210:

Molecular target: FBH1 (F-box helicase 1, isoform 4);SKP1;CUL1;RBX1 (human;human;human;human, UniProt Q2TAK1;P63208;Q13616;P62877 1-969;1-163;1-776;1-108, |||)
Assay: EMSA

B1: Lag gap fork (mixed)
DNA 1: CTCAGGACTCAGTTCGTCAGCCCTTGACAGCGATGGAAGC
DNA 2: CGAAGGTAGCGACAGTTCCCCTGACGAACTGAGTCCTGAG
DNA 3: GCTTCCATCGCTCTCAAG
DNA 4: TCGCTACCTTCG
binding result: binds
